Experimental data from US5763590A (Vertex Pharmaceuticals, Inc., priority 1994, dated 1998).
Where two headings read alike, the source gives them in different places.

How the values were obtained:
[1] = cited from earlier work
[2] = biological target: Suc-Ala-Leu-Pro-Phe-pNA
[3] = biological target: Suc-Ala-Ala-Pro-Phe-pNA
[4] = biological target: Suc-Ala-Val-Pro-Phe-pNA
[5] = biological target: Suc-Ala-Phe-Pro-Phe-pNA
[6] = biological target: T1, hFKBP52 (Homo sapiens, UniProt Q02790); assay: Inhibition of peptidyl-prolyl cis-trans isomerase (PPIase) activity of hFKBP52; format: biochemical
T1 construct: The hFKBP52 open reading frame (ORF) was expressed in E. coli with a vector (pQE8, Qiagen Inc.); histidine tag (pQE8) (N, cleaved yes); Factor Xa cleavage site (Ile-Glu-Gly-Arg) (N, cleaved yes); made in house; host or cells: E. coli XA90
T1 sequence (Q02790 1-459): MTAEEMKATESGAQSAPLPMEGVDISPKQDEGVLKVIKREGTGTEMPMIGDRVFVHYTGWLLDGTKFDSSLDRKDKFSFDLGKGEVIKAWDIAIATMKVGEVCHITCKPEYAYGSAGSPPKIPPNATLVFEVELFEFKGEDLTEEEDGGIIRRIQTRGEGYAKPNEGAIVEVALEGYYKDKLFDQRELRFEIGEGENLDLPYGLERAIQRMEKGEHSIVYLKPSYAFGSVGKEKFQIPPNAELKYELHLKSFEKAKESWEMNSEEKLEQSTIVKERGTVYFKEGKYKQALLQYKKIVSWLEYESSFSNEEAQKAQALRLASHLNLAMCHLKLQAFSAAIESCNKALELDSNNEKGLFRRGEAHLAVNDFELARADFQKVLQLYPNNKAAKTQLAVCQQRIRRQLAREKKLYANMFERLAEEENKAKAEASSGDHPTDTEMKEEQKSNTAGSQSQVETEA
Protocol: The peptidyl-prolyl isomerization rate was determined by coupling isomerization of a prolyl-containing peptide to trans substrate hydrolysis by chymotrypsin (Fisher, G., et al., Nature 337:476-478 (1989)). The assay was performed according to Harrison and Stein (Biochem., 29:3813-3816 (1980) with modifications described by Park S. T., et al., J. Biol. Chem. 267:3316-3324 (1992). The tetrapeptide substrate succinyl-Ala-P1-Pro-Phe-p-nitroanilide, where P1=Leu, was used to determine specific activity and inhibition constants, and a series of peptide substrates with related structures (P1=Phe, Val, Ala, Gly, Glu or Lys) was used to determine substrate specificity. Protein concentrations of rhFKBP52 stock solutions were determined by a Coomassie Blue binding assay (Bradford, M., Anal. Biochem., 72:248-254 (1976)). FKBP52 (60 nM final) was added to a reaction mixture containing substrate (27 μM final) in 0.1M Tris-HCl, pH 7.8 at 15° C., and the solution was incubated in a 2 ml cuvette for 5 min at 15° C. […] For measurement of substrate specificity, the final FKBP52 concentration was adjusted so the Kobs was at least four-fold higher than knon-enz. Inhibition data were fit to an equation for tight-binding competitive inhibitors using KineTic™ software (BioKin, Ltd.) running on a Macintosh IIcx computer.

[7] = PPIase catalysis of the isomerization of tetrapeptide substrates (chymotrypsin-coupled assay); format: biochemical
Protocol: As described in detail in Example 2, the assay of Harrison and Stein (Harrison, R. K. and R. L. Stein, Biochemistry 29:3813-3816 (1990)) can be used to measure peptidyl prolyl cis-trans isomerization (PPIase) activity of FKBP52.
The peptidyl-prolyl isomerization rate was determined by coupling isomerization of a prolyl-containing peptide to trans substrate hydrolysis by chymotrypsin (Fisher, G., et al., Nature 337:476-478 (1989)). The assay was performed according to Harrison and Stein (Biochem., 29:3813-3816 ([…]) with modifications described by Park S. T., et al., J. Biol. Chem. 267:3316-3324 (1992). The tetrapeptide substrate succinyl-Ala-P1-Pro-Phe-p-nitroanilide, where P1=Leu, was used to determine specific activity and inhibition constants, and a series of peptide substrates with related structures (P1=Phe, Val, Ala, Gly, Glu or Lys) was used to determine substrate specificity. Protein concentrations of rhFKBP52 stock solutions were determined by a Coomassie Blue binding assay (Bradford, M., Anal. Biochem., 72:248-254 (1976)). FKBP52 (60 nM final) was added to a reaction mixture containing substrate (27 μM final) in 0.1M Tris-HCl, pH 7.8 at 15° C., and the solution was incubated in a 2 ml cuvette for 5 min at 15° C. (950 μl final) before adding chymotrypsin (100 μg ml^-1 final) to start reaction. For measurement of substrate specificity, the final FKBP52 concentration was adjusted so the Kobs was at least four-fold higher than knon-enz. Inhibition data were fit to an equation for tight-binding competitive inhibitors using KineTic™ software (BioKin, Ltd.) running on a Macintosh IIcx computer.

hFKBP12: recombinant human FK506 binding protein of Mr about 11,800, used as comparator PPIase
Specific activity at 15° C. ([1]; Substrate P1 = Ala, data from Park et al. 1992): 310000 M⁻¹ s⁻¹
Specific activity at 15° C. ([1]; Substrate P1 = Leu (Suc-Ala-Leu-Pro-Phe-pNA), data from Park et al. 1992, listed as FKBP12): 4.3e+06 M⁻¹ s⁻¹
Specific activity at 15° C. ([1]; Substrate P1 = Leu (Suc-Ala-Leu-Pro-Phe-pNA), data from Park et al. 1992): 4.3e+06 M⁻¹ s⁻¹
Specific activity at 15° C. ([1]; Substrate P1 = Phe, data from Park et al. 1992): 2e+06 M⁻¹ s⁻¹
Specific activity at 15° C. ([1]; Substrate P1 = Val, data from Park et al. 1992): 900000 M⁻¹ s⁻¹

recombinant human FKBP52 (Mr 52,000 FK506 binding protein) (enzyme)
Specific activity at 15° C. (PPIase, chymotrypsin-coupled assay) [2]: 390000 M⁻¹ s⁻¹
Specific activity at 15° C. (PPIase, chymotrypsin-coupled assay) [3]: 26000 M⁻¹ s⁻¹
Specific activity at 15° C. (PPIase, chymotrypsin-coupled assay) [4]: 39000 M⁻¹ s⁻¹
Specific activity at 15° C. (PPIase, chymotrypsin-coupled assay) [5]: 73000 M⁻¹ s⁻¹

CO[C@H]1C[C@@H]2CC[C@@H](C)[C@@](O)(O2)C(=O)C(=O)N2CCCC[C@H]2C(=O)O[C@H]([C@H](C)C[C@@H]2CC[C@@H](O)[C@H](OC)C2)CC(=O)[C@H](C)/C=C(\C)[C@@H](O)[C@@H](OC)C(=O)[C@H](C)C[C@H](C)/C=C/C=C/C=C/1C [rapamycin]
Ki [6]: 8 nM

B1: hFKBP52: Mr 52,000 FK506 binding protein; recombinant human form expressed in E. coli, 459 residues (SEQ ID NO: 26) (protein)
chain: T1 sequence (Q02790 1-459)
Specific activity at 15° C. ([7]; Substrate P1 = Ala): 26000 M⁻¹ s⁻¹
Specific activity at 15° C. ([7]; Substrate P1 = Leu (Suc-Ala-Leu-Pro-Phe-pNA)): 390000 M⁻¹ s⁻¹
Specific activity at 15° C. ([7]; Substrate P1 = Leu (Suc-Ala-Leu-Pro-Phe-pNA), listed as FKBP52): 390000 M⁻¹ s⁻¹
Specific activity at 15° C. ([7]; Substrate P1 = Phe): 73000 M⁻¹ s⁻¹
Specific activity at 15° C. ([7]; Substrate P1 = Val): 39000 M⁻¹ s⁻¹
Specific activity relative to recombinant human FKBP12 (rhFKBP12) ([7]; substrate Suc-Ala-Leu-Pro-Phe-pNA, 15° C.): approximately 10%
